Patent US20260056186A1 (JIANGSU HENGRUI PHARMACEUTICALS, published 2026)

B1: TACI-12-Fc (Fc fusion)
chain: SLSCRKEQGKFYDHLLRDCISCASICGQHPKQCAYFCEDKTHTCPPCPAPEAEGAPSVFLFPPKPKDTLMISRTPEVTCVVVDVSHEDPEVKFNWYVDGVEVHNAKTKPREEQYNSTYRVVSVLTVLHQDWLNGKEYKCKVSNKALPSSIEKTISKAKGQPREPQVYTLPPSRDELTKNQVSLTCLVKGFYPSDIAVEWESNGQPENNYKTTPPVLDSDGSFFLYSKLTVDKSRWQQGNVFSCSVMHEALHNHYTQKSLSLSPGK
notes: TACI-9 truncated C-terminally by 3 amino acids, fused directly to Fc
B2: TACI-11-Fc (Fc fusion)
chain: SLSCRKEQGKFYDHLLRDCISCASICGQHPKQCAYFCENDKTHTCPPCPAPEAEGAPSVFLFPPKPKDTLMISRTPEVTCVVVDVSHEDPEVKFNWYVDGVEVHNAKTKPREEQYNSTYRVVSVLTVLHQDWLNGKEYKCKVSNKALPSSIEKTISKAKGQPREPQVYTLPPSRDELTKNQVSLTCLVKGFYPSDIAVEWESNGQPENNYKTTPPVLDSDGSFFLYSKLTVDKSRWQQGNVFSCSVMHEALHNHYTQKSLSLSPGK
B3: TACI-10-Fc (Fc fusion)
chain: SLSCRKEQGKFYDHLLRDCISCASICGQHPKQCAYFCENKDKTHTCPPCPAPEAEGAPSVFLFPPKPKDTLMISRTPEVTCVVVDVSHEDPEVKFNWYVDGVEVHNAKTKPREEQYNSTYRVVSVLTVLHQDWLNGKEYKCKVSNKALPSSIEKTISKAKGQPREPQVYTLPPSRDELTKNQVSLTCLVKGFYPSDIAVEWESNGQPENNYKTTPPVLDSDGSFFLYSKLTVDKSRWQQGNVFSCSVMHEALHNHYTQKSLSLSPGK
notes: TACI-9 truncated C-terminally by 1 amino acid, fused directly to Fc

Target: T1, BAFF (Sino biological, 10056-HNCH) (UniProt Q9Y275 134-285, biotinylated in the blocking ELISA (site not stated))
T1 construct: also called BLyS
Experiment: competition ELISA: fusion protein pre-mixed with biotinylated BAFF, added to coated BAFF-R
Description: The above TACI-Fc fusion proteins' function of blocking the binding of BAFF to BAFF-R was further assessed as follows: The receptor protein was diluted with a pH 7.4 PBS (BasalMedia, B320) buffer to 2 μg/mL, and the resulting dilution was added to a 96-well microplate (Corning, 3590) at 100 μL/well. The plate was incubated overnight at 4° C. After the liquid was discarded, 1% Casein blocking solution (Thermo, 37528) was added at 200 μL/well for blocking, and the plate was incubated at 37° C. for 2 h. After the blocking, the blocking solution was discarded, and the plate was washed 3 times with a PBST buffer (pH 7.4 PBS containing 0.1% tween-20) and set aside for later use. A biotinylated ligand protein at a fixed concentration was mixed with a serially diluted antibody or fusion protein, and the mixture was pre-incubated at 37° C. for 30 min and then added to the blocked microplate. The plate was incubated at 37° C. for 1.5 h. After the incubation, the plate was washed 3 times with PBST, and streptavidin-HRP (Invitrogen, 434323, diluted in a 1:4000 ratio) was added at 100 μL/well. The plate was incubated at 37° C. for 1 h. The supernatant was removed. After the plate was washed 3 times with PBST, the chromogenic substrate TMB (KPL, 5120-0077) was added at 100 μL/well. The plate was incubated at room temperature for 10-15 min, and 1 M H₂SO₄ was added at 50 μL/well to stop the reaction. The absorbance at 450 nm was measured using a microplate reader. Curves for the inhibition of the binding of the ligand to the receptor were fitted using software, and IC₅₀ values were calculated. The sources of the ligand and the receptor protein used are as follows: BAFF (Sino biological, 10056-HNCH) and BAFF-R (Sino biological, 16079-H02H).
(§1) In addition, the BAFF binding activity of the constructed TACI-Fc fusion proteins was assessed, and the TACI-Fc fusion proteins' functional activity of blocking the binding of BAFF to BAFF-R was assessed (see Example 1 for the experimental method).

Row | IC50 | Binder
1 | 3.86 nM | B1
2 | 2.62 nM | B2
3 | 2.7 nM | B3

Target: T1, BAFF (Sino biological, 10056-HNCH)
Experiment: ELISA, BAFF coated at 1 ug/mL, anti-human IgG-HRP
Description: as §1
The BAFF binding activity of the TACI-Fc fusion proteins was assessed as follows: BAFF (Sino biological, 10056-HNCH) protein was diluted with a pH 7.4 PBS (BasalMedia, B320) buffer to 1 μg/mL, and the resulting dilution was added to a 96-well microplate (Corning, 3590) at 100 μL/well. The plate was incubated overnight at 4° C. After the liquid was discarded, 5% skim milk (BD, 232100), diluted with PBS, was added at 300 μL/well for blocking, and the plate was incubated at 37° C. for 2 h. After the blocking, the blocking solution was discarded, and the plate was washed 3 times with a PBST buffer (pH 7.4 PBS containing 0.10% tween-20). Serially diluted test antibody or fusion protein solutions were added at 100 μL/well, and the plate was incubated at 37° C. for 1 h. […] The plate was incubated at 37° C. for 1 h. After the plate was washed 3 times with PBST, the chromogenic substrate TMB (KPL, 5120-0077) was added at 100 μL/well. The plate was incubated at room temperature for 10-15 min, and 1 M H₂SO₄ was added at 50 μL/well to stop the reaction. The absorbance at 450 nm was measured using a microplate reader. Curves for the binding of the antibodies to the antigen were fitted using software, and EC₅₀ values were calculated.

Row | EC50 | Binder
4 | 0.894 nM | B1
5 | 0.584 nM | B2
6 | 0.561 nM | B3
